Molecular target: human complement Factor D present in C1q-depleted human serum (human, UniProt P00746 26-253)
Assay: cell-based or functional assay

Chain of human complement Factor D present in C1q-depleted human serum (P00746 26-253 limits assumed): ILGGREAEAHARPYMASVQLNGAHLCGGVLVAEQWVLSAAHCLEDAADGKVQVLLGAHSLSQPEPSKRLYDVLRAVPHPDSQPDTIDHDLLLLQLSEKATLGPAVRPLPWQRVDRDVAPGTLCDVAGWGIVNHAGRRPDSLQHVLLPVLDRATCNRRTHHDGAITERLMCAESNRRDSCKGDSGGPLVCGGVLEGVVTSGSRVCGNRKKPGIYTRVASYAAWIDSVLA

- IC50 inhibiting alternative complement in human serum (fD-dependent lysis of rabbit red blood cells): 3.3 nM
B1: anti-fD Fab with an amino acid sequence of heavy chain variable region according to SEQ ID NO: 71 and light chain variable region according to SEQ ID NO: 72 (Fab)
heavy: EVQLVQSGPELKKPGASVKVSCKASGYTFTNYGMNWVRQAPGQGLEWMGWINTYTGETTYADDFKGRFVFSLDTSVSTAYLQISSLKAEDTAVYYCERGGVNNWGQGTLVTVSSASTKGPSVFPLAPSSKSTSGGTAALGCLVKDYFPEPVTVSWNSGALTSGVHTFPAVLQSSGLYSLSSVVTVPSSSLGTQTYICNVNHKPSNTKVDKKVEPKSCDKTHT
light: DIQVTQSPSSLSASVGDRVTITCITSTDIDDDMNWYQQKPGKVPKLLISGGNTLRPGVPSRFSGSGSGTDFTLTISSLQPEDVATYYCLQSDSLPYTFGQGTKVEIKRTVAAPSVFIFPPSDEQLKSGTASVVCLLNNFYPREAKVQWKVDNALQSGNSQESVTEQDSKDSTYSLSSTLTLSKADYEKHKVYACEVTHQGLSSPVTKSFNRGEC

— patent US20180051287A1 (VITRISA THERAPEUTICS, published 2018)
